Test results published in patent publication US20130060011A1 (published 2013).

B1: hu Fab (MCSP)-Crossfab (CD3) (bispecific antibody)
heavy: EVQLQESGPGLVKPSQSLSLTCSVTGYSITSGYYWNWIRQFPGNKLEWMGYITYDGSNNYNPSLKNRISITRDTSKNQFFLKLNSVTTEDTATYYCADFDYWGQGTTLTVSSASTKGPSVFPLAPSSKSTSGGTAALGCLVKDYFPEPVTVSWNSGALTSGVHTFPAVLQSSGLYSLSSVVTVPSSSLGTQTYICNVNHKPSNTKVDKKVEPKSCDGGGGSGGGGSDIQMTQSPSSLSASVGDRVTITCRASQDIRNYLNWYQQKPGKAPKLLIYYTSRLESGVPSRFSGSGSGTDYTLTISSLQPEDFATYYCQQGNTLPWTFGQGTKVEIKSSASTKGPSVFPLAPSSKSTSGGTAALGCLVKDYFPEPVTVSWNSGALTSGVHTFPAVLQSSGLYSLSSVVTVPSSSLGTQTYICNVNHKPSNTKVDKKVEPKSC
light: DIVLTQSPSSLSASLGDRVTISCSASQGIRNYLNWYQQRPDGTVKLLIYYTSSLHSGVPSRFSGSGSGTDYSLTISNLEPEDIATYYCQQYSKLPWTFGGGTKLEIKRTVAAPSVFIFPPSDEQLKSGTASVVCLLNNFYPREAKVQWKVDNALQSGNSQESVTEQDSKDSTYSLSSTLTLSKADYEKHKVYACEVTHQGLSSPVTKSFNRGEC
chain: EVQLVESGGGLVQPGGSLRLSCAASGYSFTGYTMNWVRQAPGKGLEWVALINPYKGVSTYNQKFKDRFTISVDKSKNTAYLQMNSLRAEDTAVYYCARSGYYGDSDWYFDVWGQGTLVTVSSASVAAPSVFIFPPSDEQLKSGTASVVCLLNNFYPREAKVQWKVDNALQSGNSQESVTEQDSKDSTYSLSSTLTLSKADYEKHKVYACEVTHQGLSSPVTKSFNRGEC
B2: (scFv)2 (antiMCSP/anti huCD3e) (bispecific antibody)
scFv: DIVLTQSPSSLSASLGDRVTISCSASQGIRNYLNWYQQRPDGTVKLLIYYTSSLHSGVPSRFSGSGSGTDYSLTISNLEPEDIATYYCQQYSKLPWTFGGGTKLEIKGGGGSGGGGSGGGGSEVQLQESGPGLVKPSQSLSLTCSVTGYSITSGYYWNWIRQFPGNKLEWMGYITYDGSNNYNPSLKNRISITRDTSKNQFFLKLNSVTTEDTATYYCADFDYWGQGTTLTVSSGGGGSEVQLVESGGGLVQPGGSLRLSCAASGYSFTGYTMNWVRQAPGKGLEWVALINPYKGVSTYNQKFKDRFTISVDKSKNTAYLQMNSLRAEDTAVYYCARSGYYGDSDWYFDVWGQGTLVTVSSVEGGSGGSGGSGGSGGVDDIQMTQSPSSLSASVGDRVTITCRASQDIRNYLNWYQQKPGKAPKLLIYYTSRLESGVPSRFSGSGSGTDYTLTISSLQPEDFATYYCQQGNTLPWTFGQGTKVEIKHHHHHH

Experiments:
human MCSP = human MCSP (human, UniProt Q6UVK1 30-2322); experiment: cell-based or functional assay
Chain of human MCSP (Q6UVK1 30-2322): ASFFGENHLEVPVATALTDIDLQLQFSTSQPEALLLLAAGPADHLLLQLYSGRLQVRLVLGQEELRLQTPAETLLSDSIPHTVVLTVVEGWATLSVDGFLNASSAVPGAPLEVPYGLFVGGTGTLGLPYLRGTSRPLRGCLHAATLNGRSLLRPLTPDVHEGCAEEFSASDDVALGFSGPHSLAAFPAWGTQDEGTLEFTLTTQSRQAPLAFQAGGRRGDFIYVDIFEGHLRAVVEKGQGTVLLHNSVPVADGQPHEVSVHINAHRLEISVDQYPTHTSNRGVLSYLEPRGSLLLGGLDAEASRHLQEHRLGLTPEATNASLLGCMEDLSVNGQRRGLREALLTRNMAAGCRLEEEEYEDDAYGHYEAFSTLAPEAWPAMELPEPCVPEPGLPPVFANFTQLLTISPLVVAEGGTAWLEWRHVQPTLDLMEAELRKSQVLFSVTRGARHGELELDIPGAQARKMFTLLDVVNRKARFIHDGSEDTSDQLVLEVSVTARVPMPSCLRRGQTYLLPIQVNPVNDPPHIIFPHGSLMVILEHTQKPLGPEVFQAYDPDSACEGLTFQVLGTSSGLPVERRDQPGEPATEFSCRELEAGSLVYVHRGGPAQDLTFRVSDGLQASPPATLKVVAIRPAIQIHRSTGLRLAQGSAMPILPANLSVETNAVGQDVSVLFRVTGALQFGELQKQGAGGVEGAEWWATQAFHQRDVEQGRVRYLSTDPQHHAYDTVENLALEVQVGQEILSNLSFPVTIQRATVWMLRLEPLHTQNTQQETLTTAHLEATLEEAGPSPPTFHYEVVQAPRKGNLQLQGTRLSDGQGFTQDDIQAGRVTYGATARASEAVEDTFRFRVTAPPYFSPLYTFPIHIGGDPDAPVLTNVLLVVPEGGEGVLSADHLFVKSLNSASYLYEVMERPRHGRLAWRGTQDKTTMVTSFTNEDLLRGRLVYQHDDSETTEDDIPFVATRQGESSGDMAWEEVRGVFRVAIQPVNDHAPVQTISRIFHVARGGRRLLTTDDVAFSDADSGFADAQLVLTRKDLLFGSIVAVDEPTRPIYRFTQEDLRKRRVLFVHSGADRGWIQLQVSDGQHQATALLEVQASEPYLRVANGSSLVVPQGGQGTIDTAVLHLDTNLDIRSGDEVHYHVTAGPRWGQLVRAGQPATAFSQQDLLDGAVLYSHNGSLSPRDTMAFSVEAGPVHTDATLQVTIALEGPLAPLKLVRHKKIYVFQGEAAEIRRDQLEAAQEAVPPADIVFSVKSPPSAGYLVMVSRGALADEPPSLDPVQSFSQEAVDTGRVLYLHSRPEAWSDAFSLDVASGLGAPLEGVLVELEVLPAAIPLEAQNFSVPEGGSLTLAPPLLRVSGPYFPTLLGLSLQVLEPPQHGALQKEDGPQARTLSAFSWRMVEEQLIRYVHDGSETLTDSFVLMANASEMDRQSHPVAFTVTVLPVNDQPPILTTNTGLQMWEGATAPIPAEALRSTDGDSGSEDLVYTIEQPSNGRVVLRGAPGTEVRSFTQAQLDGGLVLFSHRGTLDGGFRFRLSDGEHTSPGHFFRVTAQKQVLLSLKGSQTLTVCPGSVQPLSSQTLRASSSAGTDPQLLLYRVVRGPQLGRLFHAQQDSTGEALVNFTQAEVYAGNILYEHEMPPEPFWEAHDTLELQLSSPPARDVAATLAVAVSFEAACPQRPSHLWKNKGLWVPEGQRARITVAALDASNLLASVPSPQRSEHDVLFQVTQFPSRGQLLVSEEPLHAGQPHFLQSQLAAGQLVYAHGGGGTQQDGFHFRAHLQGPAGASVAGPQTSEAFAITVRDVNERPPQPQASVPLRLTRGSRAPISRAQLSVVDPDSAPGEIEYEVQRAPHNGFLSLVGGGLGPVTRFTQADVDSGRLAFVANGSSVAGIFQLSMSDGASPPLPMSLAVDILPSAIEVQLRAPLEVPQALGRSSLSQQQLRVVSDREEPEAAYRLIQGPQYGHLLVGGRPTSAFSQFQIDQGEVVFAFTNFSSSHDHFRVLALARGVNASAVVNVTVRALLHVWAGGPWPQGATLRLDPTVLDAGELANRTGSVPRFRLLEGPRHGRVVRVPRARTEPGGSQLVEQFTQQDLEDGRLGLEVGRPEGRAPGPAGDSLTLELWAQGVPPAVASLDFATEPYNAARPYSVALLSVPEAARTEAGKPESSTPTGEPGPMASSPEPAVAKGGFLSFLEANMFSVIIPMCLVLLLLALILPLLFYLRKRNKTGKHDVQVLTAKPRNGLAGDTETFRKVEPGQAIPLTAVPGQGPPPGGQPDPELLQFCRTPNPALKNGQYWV

human CD3 = human CD3 (human, UniProt P07766 23-207); experiment: cell-based or functional assay
Chain of human CD3 (P07766 23-207): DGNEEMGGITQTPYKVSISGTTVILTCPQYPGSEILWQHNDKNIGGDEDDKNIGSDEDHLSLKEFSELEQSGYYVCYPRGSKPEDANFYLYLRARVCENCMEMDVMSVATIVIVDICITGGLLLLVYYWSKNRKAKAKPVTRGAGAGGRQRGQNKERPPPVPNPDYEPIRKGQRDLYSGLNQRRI

Binder | Killing (as measured by LDH release) of MV-3 tumor cells upon co-culture with human PBMCs (E:T ratio=10:1), 24 hours; EC50 (human MCSP) [pM] | Killing (as measured by LDH release) of MV-3 tumor cells upon co-culture with human PBMCs (E:T ratio=10:1), 24 hours; EC50 (human CD3) [pM]
B1 | 25.4 | 25.4
B2 | 57 | 57
